Experimental findings from patent US9006178 (Novo Nordisk, dated 2015) are described below.

*1 amine or outer side, *2 acyl side, *3 side chain or, on linkers, in order; H or OH if unused. Where no end group is shown, it is not given here. Side-chain parts run from the residue outwards. [ ]: non-standard residue; d: D form. The star is where a group is joined. Dodecanoyl(12-OPh(4-COOH)) = O=C(O)c1ccc(OCCCCCCCCCCCC(=O)*)cc1; Decanoyl(10-(4-HOOC-PhO)) = O=C(O)c1ccc(OCCCCCCCCCC(=O)*)cc1; C18 diacid = O=C(O)CCCCCCCCCCCCCCCCC(=O)*; C16 diacid = O=C(O)CCCCCCCCCCCCCCC(=O)*; γGlu = O=C(O)[C@H](CCC(=O)[*:2])N[*:1]; Desaminohistidyl = O=C(CCc1c[nH]cn1)*; εLys = N[C@@H](CCCCN[*:1])C(=O)[*:2]; AEEA = NCCOCCOCC(=O)O; Aib = CC(C)(N)C(=O)O

B1: N^ε18-[(2S)-2-amino-6-[[2-[2-[2-[[(4S)-4-carboxy-4-(15-carboxypentadecanoylamino)butanoyl]amino]ethoxy]ethoxy]acetyl]amino]hexanoyl], … (peptide)
peptide: H[Aib]EGTFTSDVSK([εLys-AEEA-γGlu-C16 diacid])YLEGQAAK([εLys-AEEA-γGlu-C16 diacid])EFIAWLVQGRG
notes: Double-acylated GLP-1 analogue; positions are counted with His as no
B2: N^ε18-[(2S)-2-amino-6-[[2-[2-[2-(15-carboxypentadecanoylamino)ethoxy]ethoxy]acetyl]amino]hexanoyl], … (peptide)
peptide: H[Aib]EGTFTSDVSK([εLys-AEEA-C16 diacid])YLEGQAAK([εLys-AEEA-C16 diacid])EFIAWLVQGRG
notes: as for B1
B3: N^ε18-[2-[2-[2-[[(2S)-2-amino-6-[[2-[2-[2-[[(4S)-4-carboxy-4-[10-(4-carboxyphenoxyl)decanoylamino]butanoyl]amino]ethoxy]ethoxy]acetyl]amino]hexanoyl]amino]ethox … (peptide)
peptide: [Desaminohistidyl]AEGTFTSDVSK([AEEA-εLys-AEEA-γGlu-Decanoyl(10-(4-HOOC-PhO))])YLEEQAVREFIAK([AEEA-εLys-AEEA-γGlu-Decanoyl(10-(4-HOOC-PhO))])LVRGRG
notes: Double-acylated GLP-1 analogue; positions are counted with residue 1 of the entry as no
B4: N^ε18-[2-[2-[2-[[(2S)-2-amino-6-[[2-[2-[2-[[(4S)-4-carboxy-4-[10-(4-carboxyphenoxyl)decanoylamino]butanoyl]amino]ethoxy]ethoxy]acetyl]amino]hexanoyl]amino]ethox … (peptide)
peptide: [Desaminohistidyl][Aib]EGTFTSDVSK([AEEA-εLys-AEEA-γGlu-Decanoyl(10-(4-HOOC-PhO))])YLEEQAAK([AEEA-εLys-AEEA-γGlu-Decanoyl(10-(4-HOOC-PhO))])EFIAWLVQGRG
notes: as for B3
B5: N^ε18-[(2S)-2-amino-6-[[(2S)-2-amino-6-[[(4S)-4-carboxy-4-[12-(4-carboxyphenoxy)dodecanoylamino]butanoyl]amino]hexanoyl]amino]hexanoyl], … (peptide)
peptide: H[Aib]EGTFTSDVSK([εLys-εLys-γGlu-Dodecanoyl(12-OPh(4-COOH))])YLEGQAAK([εLys-εLys-γGlu-Dodecanoyl(12-OPh(4-COOH))])EFIAWLVQGRG
notes: as for B1
B6: N^ε18-[(2S)-2-amino-6-[[(2S)-2-amino-6-[[(4S)-4-carboxy-4-[10-(4-carboxyphenoxyl)decanoylamino]butanoyl]amino]hexanoyl]amino]hexanoyl], … (peptide)
peptide: H[Aib]EGTFTSDVSK([εLys-εLys-γGlu-Decanoyl(10-(4-HOOC-PhO))])YLEGQAAK([εLys-εLys-γGlu-Decanoyl(10-(4-HOOC-PhO))])EFIAWLVQGRG
notes: as for B1
B7: N^ε18-[(2S)-2-amino-6-[[(2S)-2-amino-6-[[(4S)-4-carboxy-4-(17-carboxyheptadecanoylamino)butanoyl]amino]hexanoyl]amino]hexanoyl], … (peptide)
peptide: H[Aib]EGTFTSDVSK([εLys-εLys-γGlu-C18 diacid])YLEGQAAK([εLys-εLys-γGlu-C18 diacid])EFIAWLVQGRG
notes: as for B1
B8: N^ε18-[(2S)-2-amino-6-[[(2S)-2-amino-6-[[(4S)-4-carboxy-4-(15-carboxypentadecanoylamino)butanoyl]amino]hexanoyl]amino]hexanoyl], … (peptide)
peptide: H[Aib]EGTFTSDVSK([εLys-εLys-γGlu-C16 diacid])YLEGQAAK([εLys-εLys-γGlu-C16 diacid])EFIAWLVQGRG
notes: as for B1
B9: N^ε18-[(2S)-2-amino-6-[[2-[2-[2-[[2-[2-[2-[[(4S)-4-carboxy-4-[12-(4-carboxyphenoxy)dodecanoylamino]butanoyl]amino]ethoxy]ethoxy]acetyl]amino]ethoxy]ethoxy]acety … (peptide)
peptide: H[Aib]EGTFTSDVSK([εLys-AEEA-AEEA-γGlu-Dodecanoyl(12-OPh(4-COOH))])YLEGQAAK([εLys-AEEA-AEEA-γGlu-Dodecanoyl(12-OPh(4-COOH))])EFIAWLVQGRG
notes: as for B1
B10: N^ε18-[(2S)-2-amino-6-[[(4S)-4-carboxy-4-(15-carboxypentadecanoylamino)butanoyl]amino]hexanoyl], … (peptide)
peptide: H[Aib]EGTFTSDVSK([εLys-γGlu-C16 diacid])YLEGQAAK([εLys-γGlu-C16 diacid])EFIAWLVQGRG
notes: as for B1

What is called IC50 is the point on the concentration scale where inhibition reaches its midpoint.

The target of one experiment is T1, human GLP-1 receptor (human, UniProt P43220 24-463).
T1 construct: whole, on cells; also called hGLP-1
As to the kind of experiment: SPA displacement of [125I]-GLP-1(7-36)NH2 from human GLP-1 receptor membranes, low albumin (0.005% HSA). The procedure: (§1) 25 ul (microliter) of test compounds are added to Optiplate. HSA ("high albumin" experiment containing 2% HSA), or buffer ("low albumin" experiment containing 0.005% HSA), was added (50 ul). 5-10 ug protein/sample was added (50 ul) corresponding to 0.1-0.2 mg protein/ml (to be preferably optimised for each membrane preparation). SPA-particles (Wheatgerm agglutinin SPA beads, Perkin Elmer, #RPNQ0001) were added in an amount of 0.5 mg/well (50 ul). […] The plates were sealed with PlateSealer and incubated for 120 minutes at 30° C. while shaking. The plates were centrifuged (1500 rpm, 10 min) and counted in Topcounter.
(In general: Displacement assays read how much labelled ligand stays bound in the presence of the test substance.)
Take “N^ε18-[(2S)-2-amino-6-[[(4S)-4-carboxy-4-(13-carboxytridecanoylamino)butanoyl]amino]hexanoyl], N^ε26-[(2S)-2-amino-6-[[(4S)-4-carboxy-4-(13-carboxytridecanoylamino)butanoyl]amino]hexanoyl]-[Lys^8,Glu^22,Gln^34] (SEQ ID NO: 11)-GLP-1-(7-37)-peptide”: the IC50 is less than 35 nM.

Molecule “N^ε18-[(2S)-2-amino-6-[[(2S)-2-amino-6-[[(4S)-4-carboxy-4-[8-[10-(4-carboxyphenoxyl)decanoylamino]octanoylamino]butanoyl]amino]hexanoyl]amino]hexanoyl], N^ε26-[(2S)-2-amino-6-[[(2S)-2-amino-6-[[(4S)-4-carboxy-4-[8-[10-(4-carboxyphenoxyl)decanoylamino]octanoylamino]butanoyl]amino]hexanoyl]amino]hexanoyl]-[Aib^8,Lys^18,Glu^22,Gln^34] (SEQ ID NO: 9)-GLP-1-(7-37)-peptide” came in with an IC50 of less than 35 nM.

In the case of “N^ε18-[(2S)-2-amino-6-[[2-[2-[2-[[(4S)-4-carboxy-4-(13-carboxytridecanoylamino)butanoyl]amino]ethoxy]ethoxy]acetyl]amino]hexanoyl], N^ε26-[(2S)-2-amino-6-[[2-[2-[2-[[(4S)-4-carboxy-4-(13-carboxytridecanoylamino)butanoyl]amino]ethoxy]ethoxy]acetyl]amino]hexanoyl]-[Lys^18,Glu^22,Gln^34] (SEQ ID NO: 11)-GLP-1-(7-37)-peptide”, the IC50 is less than 35 nM.

In the case of “N^ε18-[(2S)-2-amino-6-[[(2S)-2-amino-6-[[(4S)-4-carboxy-4-[10-(4-carboxyphenoxyl)decanoylamino]butanoyl]amino]hexanoyl]amino]hexanoyl], N^ε26-[(2S)-2-amino-6-[[(2S)-2-amino-6-[[(4S)-4-carboxy-4-[10-(4-carboxyphenoxyl)decanoylamino]butanoyl]amino]hexanoyl]amino]hexanoyl]-[Aib^8,Lys^18,Glu^22,Gln^34] (SEQ ID NO: 9)-GLP-1-(7-37)-peptide”, the IC50 is less than 35 nM.

B1 showed an IC50 of less than 35 nM.

Turning to B2, the IC50 was less than 35 nM.

In turn, B3 returned an IC50 of less than 35 nM.

Take B4: the IC50 was less than 35 nM.

Turning to B5, the IC50 was less than 35 nM.

B6 had a half-inhibitory concentration (IC50) of less than 35 nM.

The molecule H[Aib]EGTFTSDVSK([εLys-εLys-γGlu-Decanoyl(10-(4-HOOC-PhO))])QLEEQAAK([εLys-εLys-γGlu-Decanoyl(10-(4-HOOC-PhO))])EFIAWLVQGRG came in with an IC50 of less than 35 nM.

B7 registered an IC50 of less than 35 nM.

As to B8, the IC50 is less than 35 nM.

B9 yielded an IC50 of less than 35 nM.

Consider B10, for which the IC50 is less than 35 nM.

The target of the next experiment is T1, human GLP-1 receptor. As to the kind of experiment: SPA displacement of [125I]-GLP-1(7-36)NH2 from human GLP-1 receptor membranes; IC50 at 2.0% HSA divided by IC50 at 0.005% HSA. The procedure:
as §1
As to B1, the “ratio [(IC50/nM) high HSA]/[(IC50/nM) low HSA]” value (shortened to “ratio”) was greater than 10.

As for B2, the “ratio” value is greater than 10.

On to B3, for which the “ratio” value was greater than 10.

On to B4, for which the “ratio” value is greater than 10.

For the molecule B5, the “ratio” value was greater than 10.

As for B6, the “ratio” value is greater than 10.

For H[Aib]EGTFTSDVSK([εLys-εLys-γGlu-Decanoyl(10-(4-HOOC-PhO))])QLEEQAAK([εLys-εLys-γGlu-Decanoyl(10-(4-HOOC-PhO))])EFIAWLVQGRG, the “ratio” value was greater than 10.

Consider B7, for which the “ratio” value is greater than 10.

As for B8, the “ratio” value was greater than 10.

As for B9, the “ratio” value is greater than 10.

For the molecule B10, the “ratio” value was greater than 10.
